In the supplement of paper PMC9112550, “Optimization of the antimicrobial peptide Bac7 by deep mutational scanning” (BMC Biology, 2022):

Tested on: Escherichia coli TOP10
Assay: shrunken log2 fold change of peptide-encoding DNA abundance (4.5 h post-induction vs induction); higher = less antimicrobial activity (less host growth inhibition)
Details: time post-induction: 4.5 h; library: site-saturation at positions 5, 18, 19, 20
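Note: peptides expressed intracellularly from a pBAD plasmid library in pooled LB shake-flask culture, induced with 0.3% L-arabinose, DNA abundance read by NGS, three biological replicates, DESeq2 with apeglm shrinkage.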

| Sequence | shrunken log2 fold change |
| --- | --- |
| RRIRYRPPRLPRPRPRPTITPRP | -0.665 |
| RRIRWRPPRLPRPRPRPWDNPRP | -0.00804 |
| RRIRHRPPRLPRPRPRPGKEPRP | -0.0977 |
| RRIRHRPPRLPRPRPRPAQQPRP | -0.0312 |
| RRIRYRPPRLPRPRPRPSQKPRP | -0.359 |
| RRIRGRPPRLPRPRPRPPSVPRP | 0.645 |
| RRIRWRPPRLPRPRPRPAPHPRP | 0.491 |
| RRIRLRPPRLPRPRPRPGYCPRP | -0.416 |
| RRIRHRPPRLPRPRPRPPGCPRP | 0.184 |
| RRIRRRPPRLPRPRPRPLTQPRP | 0.342 |
| RRIRHRPPRLPRPRPRPERSPRP | 0.0418 |
| RRIRTRPPRLPRPRPRPNECPRP | -0.0286 |
| RRIRWRPPRLPRPRPRPVKFPRP | 0.0171 |
| RRIRNRPPRLPRPRPRPRQSPRP | 0.112 |
| RRIRYRPPRLPRPRPRPCTIPRP | -0.118 |
| RRIRFRPPRLPRPRPRPGQAPRP | 0.0631 |
| RRIRLRPPRLPRPRPRPLDYPRP | -0.157 |
| RRIRARPPRLPRPRPRPSNSPRP | -0.156 |
| RRIRTRPPRLPRPRPRPTQFPRP | 0.0832 |
| RRIRFRPPRLPRPRPRPSAQPRP | 0.24 |
| RRIRWRPPRLPRPRPRPYFYPRP | -0.679 |
| RRIRWRPPRLPRPRPRPPLPPRP | 1.07 |
| RRIRLRPPRLPRPRPRPNACPRP | 0.127 |

| Sequence | shrunken log2 fold change |
| --- | --- |
| RRIRVRPPRLPRPRPRPGMRPRP | 0.565 |
| RRIRDRPPRLPRPRPRPSQEPRP | 0.111 |
| RRIRSRPPRLPRPRPRPYAGPRP | 0.0441 |
| RRIRLRPPRLPRPRPRPIYTPRP | -0.377 |
| RRIRKRPPRLPRPRPRPMRRPRP | 0.762 |
| RRIRFRPPRLPRPRPRPYGSPRP | -0.182 |
| RRIRTRPPRLPRPRPRPNNFPRP | -0.381 |
| RRIRHRPPRLPRPRPRPNDPPRP | -0.246 |
| RRIRMRPPRLPRPRPRPFMNPRP | -0.196 |
| RRIRCRPPRLPRPRPRPMVPPRP | -0.354 |
| RRIRQRPPRLPRPRPRPNVKPRP | 0.0117 |
| RRIRGRPPRLPRPRPRPNMHPRP | 0.563 |
| RRIRDRPPRLPRPRPRPPHIPRP | -0.213 |
| RRIRKRPPRLPRPRPRPFSQPRP | -0.151 |
| RRIRRRPPRLPRPRPRPTATPRP | 1.56 |
| RRIRIRPPRLPRPRPRPDSPPRP | -0.0466 |
| RRIRKRPPRLPRPRPRPGQHPRP | -0.000613 |
| RRIRPRPPRLPRPRPRPLAGPRP | 0.3 |
| RRIRDRPPRLPRPRPRPTTTPRP | 0.654 |
| RRIRCRPPRLPRPRPRPYFYPRP | -1 |
| RRIRDRPPRLPRPRPRPGPTPRP | 0.355 |
| RRIRNRPPRLPRPRPRPAACPRP | -0.0409 |
| RRIRPRPPRLPRPRPRPDLQPRP | -0.221 |

| Sequence | shrunken log2 fold change |
| --- | --- |
| RRIRERPPRLPRPRPRPAQMPRP | 0.392 |
| RRIRRRPPRLPRPRPRPPLMPRP | 0.708 |
| RRIRYRPPRLPRPRPRPFITPRP | -0.709 |
| RRIRKRPPRLPRPRPRPAIHPRP | -0.0696 |
| RRIRDRPPRLPRPRPRPKWHPRP | 0.179 |
| RRIRQRPPRLPRPRPRPGDAPRP | 1.65 |
| RRIRCRPPRLPRPRPRPMSYPRP | -0.23 |
| RRIRDRPPRLPRPRPRPMMQPRP | 0.0408 |
| RRIRFRPPRLPRPRPRPMFGPRP | 0.312 |
| RRIRDRPPRLPRPRPRPFVLPRP | 0.045 |
| RRIRPRPPRLPRPRPRPYIWPRP | -0.267 |
| RRIRERPPRLPRPRPRPDWRPRP | -0.0634 |
| RRIRYRPPRLPRPRPRPGLFPRP | -0.0365 |
| RRIRVRPPRLPRPRPRPWAFPRP | -0.189 |
| RRIRIRPPRLPRPRPRPIQDPRP | -0.205 |
| RRIRWRPPRLPRPRPRPVSYPRP | -0.131 |
| RRIRERPPRLPRPRPRPINCPRP | -0.00179 |
| RRIRTRPPRLPRPRPRPPEIPRP | 0.0182 |
| RRIRYRPPRLPRPRPRPYYTPRP | -0.0958 |
| RRIRERPPRLPRPRPRPLYEPRP | -1.24 |
| RRIRVRPPRLPRPRPRPGPQPRP | 0.245 |
| RRIRTRPPRLPRPRPRPWYFPRP | -0.432 |
| RRIRFRPPRLPRPRPRPLICPRP | -0.286 |

| Sequence | shrunken log2 fold change |
| --- | --- |
| RRIRHRPPRLPRPRPRPCCDPRP | -0.228 |
| RRIRHRPPRLPRPRPRPDEPPRP | 0.197 |
| RRIRLRPPRLPRPRPRPTAYPRP | -0.047 |
| RRIRARPPRLPRPRPRPTTVPRP | 0.45 |
| RRIRIRPPRLPRPRPRPGQHPRP | -0.0183 |
| RRIRMRPPRLPRPRPRPNCIPRP | 0.11 |
| RRIRMRPPRLPRPRPRPFAKPRP | 0.3 |
| RRIRERPPRLPRPRPRPSHEPRP | -0.0595 |
| RRIRHRPPRLPRPRPRPKWRPRP | 0.328 |
| RRIRMRPPRLPRPRPRPPSTPRP | 0.97 |
| RRIRTRPPRLPRPRPRPIILPRP | -0.25 |
| RRIRQRPPRLPRPRPRPLIRPRP | -0.966 |
| RRIRWRPPRLPRPRPRPIYWPRP | -0.208 |
| RRIRSRPPRLPRPRPRPSFDPRP | -0.264 |
| RRIRKRPPRLPRPRPRPLGSPRP | -0.115 |
| RRIRMRPPRLPRPRPRPAKVPRP | 0.303 |
| RRIRGRPPRLPRPRPRPNWAPRP | 0.363 |
| RRIRIRPPRLPRPRPRPMGHPRP | -0.174 |
| RRIRNRPPRLPRPRPRPDTWPRP | -0.213 |
| RRIRPRPPRLPRPRPRPTHNPRP | 0.199 |
| RRIRTRPPRLPRPRPRPWNTPRP | -0.0118 |
| RRIRMRPPRLPRPRPRPQVQPRP | -0.000946 |
